Patent publication US20090226960A1

Legend:
LFA-1 on Jurkat T cells = LFA-1 on Jurkat T cells (UniProt P20701); test: cell-based or functional assay
CD28 on Jurkat T cells = CD28 on Jurkat T cells (UniProt P10747); test: cell-based or functional assay

Sequence of LFA-1 on Jurkat T cells (P20701 26-1170 limits assumed, chain 1 of 2): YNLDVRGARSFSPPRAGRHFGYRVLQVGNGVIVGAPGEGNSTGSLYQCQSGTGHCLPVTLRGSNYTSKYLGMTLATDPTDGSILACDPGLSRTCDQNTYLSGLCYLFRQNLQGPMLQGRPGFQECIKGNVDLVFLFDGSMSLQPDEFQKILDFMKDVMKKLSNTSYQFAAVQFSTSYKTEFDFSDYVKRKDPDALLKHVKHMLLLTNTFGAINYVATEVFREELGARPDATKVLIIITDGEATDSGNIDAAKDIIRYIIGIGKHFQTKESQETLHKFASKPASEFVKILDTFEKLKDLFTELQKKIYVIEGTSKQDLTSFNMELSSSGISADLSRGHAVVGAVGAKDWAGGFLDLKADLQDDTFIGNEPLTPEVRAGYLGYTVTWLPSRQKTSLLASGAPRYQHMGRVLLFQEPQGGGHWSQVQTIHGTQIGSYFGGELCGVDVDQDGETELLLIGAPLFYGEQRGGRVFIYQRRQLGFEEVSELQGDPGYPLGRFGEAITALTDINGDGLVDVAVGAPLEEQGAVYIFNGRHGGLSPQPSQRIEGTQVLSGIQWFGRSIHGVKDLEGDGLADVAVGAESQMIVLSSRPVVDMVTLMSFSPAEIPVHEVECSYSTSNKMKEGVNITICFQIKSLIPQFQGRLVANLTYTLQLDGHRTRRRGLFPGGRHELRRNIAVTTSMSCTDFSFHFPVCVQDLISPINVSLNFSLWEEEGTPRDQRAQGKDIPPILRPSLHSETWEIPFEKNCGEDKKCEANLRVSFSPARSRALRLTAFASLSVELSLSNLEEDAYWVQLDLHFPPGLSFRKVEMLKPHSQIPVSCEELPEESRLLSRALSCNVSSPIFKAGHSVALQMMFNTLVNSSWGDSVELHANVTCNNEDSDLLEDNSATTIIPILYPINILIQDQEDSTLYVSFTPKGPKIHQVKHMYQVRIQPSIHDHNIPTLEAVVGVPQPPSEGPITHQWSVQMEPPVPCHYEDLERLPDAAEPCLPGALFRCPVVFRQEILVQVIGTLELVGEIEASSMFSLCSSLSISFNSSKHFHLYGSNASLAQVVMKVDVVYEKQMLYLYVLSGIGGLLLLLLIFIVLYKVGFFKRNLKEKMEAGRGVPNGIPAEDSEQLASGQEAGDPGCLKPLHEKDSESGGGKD
Sequence of LFA-1 on Jurkat T cells (P05107 23-769 limits assumed, chain 2 of 2, further chain): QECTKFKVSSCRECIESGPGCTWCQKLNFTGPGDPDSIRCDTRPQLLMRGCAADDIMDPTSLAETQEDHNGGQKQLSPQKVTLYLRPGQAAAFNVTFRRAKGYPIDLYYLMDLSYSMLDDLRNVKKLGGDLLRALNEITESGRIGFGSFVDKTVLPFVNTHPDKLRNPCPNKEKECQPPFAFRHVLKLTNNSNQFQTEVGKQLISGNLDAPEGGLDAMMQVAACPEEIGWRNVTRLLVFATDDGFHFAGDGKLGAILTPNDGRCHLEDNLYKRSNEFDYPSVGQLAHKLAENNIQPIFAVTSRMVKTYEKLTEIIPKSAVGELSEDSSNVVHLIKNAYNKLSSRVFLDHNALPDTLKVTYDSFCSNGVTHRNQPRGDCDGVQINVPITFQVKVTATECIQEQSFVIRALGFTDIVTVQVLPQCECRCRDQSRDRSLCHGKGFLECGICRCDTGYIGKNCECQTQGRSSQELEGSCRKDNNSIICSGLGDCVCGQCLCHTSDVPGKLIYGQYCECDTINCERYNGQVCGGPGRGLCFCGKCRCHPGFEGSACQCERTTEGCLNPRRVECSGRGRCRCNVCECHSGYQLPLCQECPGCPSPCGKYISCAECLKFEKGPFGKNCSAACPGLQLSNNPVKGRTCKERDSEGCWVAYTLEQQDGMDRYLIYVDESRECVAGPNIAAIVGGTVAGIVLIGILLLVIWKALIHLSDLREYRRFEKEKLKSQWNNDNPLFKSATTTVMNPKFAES

Jurkat T cell adhesion to MembraneChip (fold against the control) (LFA-1 on Jurkat T cells) | Jurkat T cell adhesion to MembraneChip (fold against the control) (CD28 on Jurkat T cells) | Substance
3 | – | GPI-tethered extracellular domain of human ICAM-1 expressed from pYBS101 (from UniProt P05362 28-480) (ligand)
– | 4 | GPI-tethered extracellular domain of human B7-1 expressed from pYBS101 (from UniProt P33681 35-242) (ligand)
